Consider one molecule from patent US20070141625A1 (published 2007).

The target in this assay is T1, protein C (PC) (UniProt P04070 43-461).
T1 construct: Commercial PC
The experiment in a line: inhibition by rhsEPCR 2 µM of PC activation by thrombin on EA.hy926 endothelial cells; Ki derived from the shift of Km. The method, then: Proc Natl Acad Sci USA. 1996; 93:10212-6). 5×10⁴ cells/well were incubated in a 96-well plate with 0.02 U/ml of thrombin (0.17 nM) (ERL, Swansea, United Kingdom) and growing concentrations of PC (Baxter, Deerfield, Ill., USA) between 50 and 1000 nM in Tris 20 mM buffer, pH 7.4, supplemented with NaCl 150 mM, CaCl₂ 5 mM, MgCl₂ 0.6 mM, 1% BSA, 0.001% Tween-20 and 0.02% NaN₃. After 45 minutes at room temperature, lepirudin was added (Schering A G, Berlin, Germany) at an end concentration of 0.2 μmol/L, to inhibit thrombin; 3-4 minutes later, chromogenic substrate S-2366 was added (Chromogenix, Milan, Italy) at an end concentration of 0.4 mM with the purpose of monitoring its proteolysis by APC. The increase in absorbance at 405 nm was recorded kinetically with a microplate reader (iEMS REader, Labsystems, Finland). Curve data fitting to the Michaelis-Menten equation was carried out using the Enzfitter program (Biosoft, Cambridge, United Kingdom), which calculated the Km of PC activation under those conditions. Where necessary, 45 μg/ml of purified anti-EPCR autoantibodies from patients (see below) were added simultaneously with the thrombin and PC. Thus, the effect of the anti-EPCR autoantibodies upon PC activation could be analyzed. […]

T1 sequence (P04070 43-461): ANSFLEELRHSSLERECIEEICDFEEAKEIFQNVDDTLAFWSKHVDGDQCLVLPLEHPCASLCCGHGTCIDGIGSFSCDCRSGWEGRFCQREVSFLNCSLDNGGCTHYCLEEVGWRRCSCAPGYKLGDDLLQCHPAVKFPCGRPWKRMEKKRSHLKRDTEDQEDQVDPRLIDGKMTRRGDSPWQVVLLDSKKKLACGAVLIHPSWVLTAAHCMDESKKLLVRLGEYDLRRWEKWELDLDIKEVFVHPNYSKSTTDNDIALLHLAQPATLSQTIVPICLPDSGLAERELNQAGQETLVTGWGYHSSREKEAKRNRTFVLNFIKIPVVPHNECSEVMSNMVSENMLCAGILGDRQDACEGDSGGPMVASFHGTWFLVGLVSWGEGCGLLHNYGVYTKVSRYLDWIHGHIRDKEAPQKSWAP

B1: recombinant human soluble EPCR (rhsEPCR) (receptor)
chain: SISQDASDGLQRLHMLQISYFRDPYHVWYQGNASLGGHLTHVLEGPDTNTTIIQLQPLQEPESWARTQSGLQSYLLQFHGLVRLVHQERTLAFPLTIRCFLGCELPPEGSRAHVFFEVAVNGSSFVSFRPERALWQADTQVTSGVVTFTLQQLNAYNRTRYELREFLEDTCVQYVQKHISAENTKGSQTSRSYTSAAASFLEQKLISEEDLNSAVDHHHHHH
notes: also called recombinant sEPCR; human recombinant EPCR in soluble form
Turning to B1, the Ki (usually a measure of affinity in units of concentration, obtained from inhibition or displacement) was around 70 nM.
